Three substances from US10087225B2, “Formulation of MK2 inhibitor peptides” (MOERAE MATRIX, INC., priority 2015, dated 2018) can be followed below.

In general, viability refers to the share of living cells, or the viability signal relative to a control. Higher therefore signals better survival.

One data set concerns the target MKK7β(h) (Homo sapiens, UniProt O14733). Put plainly: Kinase Profiling Assay. Format: biochemical.
Data set [1] in a line: Cytotoxicity assay (CytoTox-ONE). The note with it: human, HCAVSMCs.
Procedure: 200 μL of cell suspension (at 10,000 cells/well) were seeded onto 96-well plates to yield an approximate 70% confluence per well. Cells were allowed to adhere to the plate overnight. […] Treatments were subsequently removed and the cells were cultured in fresh complete growth medium for 24 hours. Cells were then washed 2× with PBS +/+ and cell viability was then determined by a CytoTox-ONE Homogenous Membrane Integrity assay (Promega) according to the manufacturer's protocol. Briefly, 100 μL of Ambion KDalert Lysis Buffer was added to each well, and then 100 μL of freshly prepared CytoTox-ONE reagent was added to each well. After 10 minutes of incubation, 50 μL of stop solution was added, and the fluorescence of each well (kλex=560 nm, λem, =590 nm) was determined with a TECAN Infinite M1000 Pro plate reader.
For data set [2], the system named is HCAVSMCs. Put plainly: Flow cytometric uptake and retention of MK2i-NPs and p-HSP20-NPs (30 min treatment). The note with it: 3 days after treatment removal.
Procedure: For MK2i-NP and HSP20-NP studies, An amine-reactive Alexa-488 succinimidyl ester (Life Technologies) was dissolved in DMSO and mixed at a 1 to 3 molar ratio with the MK2i or p-HSP20 peptide in 100 mM sodium bicarbonate buffer (pH=8.3) and allowed to react for 3 hours. Unreacted fluorophore and organic solvent were removed using a PD-10 miditrap G-10 desalting column, and the fluorescently labeled MK2i and p-HSP20 peptides were lyophilized. […] Similarly, PPAA was mixed with fluorescently labeled p-HSP20 at a CR of [NH3^+]/[COO^−]=1:3 and syringe filtered through a 0.45 μm PTFE filter to form fluorescent HSP20-NPs. HCAVSMCs were grown to 80-90% confluence, harvested, and seeded at 20,000 cells/well in a 24 well plate and allowed to adhere overnight. […] Following treatment, cells were washed 2× in PBS, and either immediately harvested or incubated in complete growth media for an additional 72 hours. Cells were harvested with 0.05% trypsin-EDTA, centrifuged, and suspended in 0.1% Trypan blue in PBS (−/−) for analysis on a FACSCalibur flow cytometer (Becton Dickinson) with BD CellQuest™ Pro software (V 5.2). Data was exported and analyzed with FlowJo software (V 7.6.4). All samples were run in triplicate.
Data set [3] relates to HCAVSMCs. Put plainly: Cytosolic vs. organelle bound peptide by digitonin semi-permeabilization. Format: cell-based, human. The note with it: Bafilomycin treatment. Here is the method:
In order to quantify the cytosolic bioavailability of the MK2i and HSP20 peptides a method to separate cytosolic and organelle bound (i.e. endosomal, lysosomal, golgi, etc.) peptide was adapted from the methods developed by Liu et a140. The procedure was optimized for this experiment based upon LDH release from HCAVSMCs treated with varying concentrations of digitonin (Calbiochem) in buffer (150 mM NaCl, 0.2 mM EDTA, 20 mM HEPES-NaOH (pH 7.4), 2 mM DTT and 2 mM MgCL2) on ice for 10 mins on a rotary shaker operating at 100 RPM (supplementary FIG. 3). A concentration of 25 μg/mL was then chosen as the optimal digitonin concentration for selective semi-permeabilization of the HCAVSMC membrane and subsequently used for the analysis of intracellular peptide distribution.
To quantify intracellular distribution of the MK2i and p-HSP20 peptides, HCAVSMCs were seeded into a 96 well plate at a density of 20,000 cells/cm2 and allowed to adhere overnight in complete growth medium. A portion of the cells were pretreated with 500 nM Bafilomycin A1 (Sigma) for 30 minutes, and the Bafilomycin was included in subsequent peptide/NP treatment and in the post-treatment incubation phase to inhibit endosomal acidification. […] Treatments were removed and cells were incubated in fresh medium with or without 500 nM Bafilomycin A1 for 6 hours. […]

Data set [4] relates to HCAVSMCs. Put plainly: Flow cytometric intracellular uptake, retention and half-life (2 h treatment). The note with it: fluorescence 0 and 5 days after treatment removal; listed as MK2i. A general note: In flow cytometry, cells or beads pass a laser one at a time.
Procedure: HCAVSMCs were grown to 80-90% confluence, harvested, and seeded at 20,000 cells/well in a 24 well plate and allowed to adhere overnight in low serum media (DMEM, 1% FBS, and 1% P/S). […] Following treatment, cells were washed with PBS −/−, washed with CellScrub buffer (Genlantis) for 10 minutes at room temperature to remove extracellular polyplexes and/or peptide, washed 2× in PBS −/−, and given fresh complete growth media. Cells were then incubated for an additional 0, 12, 24, 72, or 120 hours. Cells were then washed with PBS −/−, trypsinized, and resuspended in 0.1% Trypan blue in PBS (−/−) for analysis on a FACSCalibur flow cytometer (Becton Dickinson) with BD CellQuest™ Pro software (V 5.2). Data was exported and analyzed with FlowJo software (V 7.6.4). All samples were run in triplicate.
In the next data set the target is MAPK2(h) (Homo sapiens, UniProt P28482). The data set can be described thus: Kinase Profiling Assay. Format: biochemical. The note with it: 100 μM.
The target in the next data set is Lck(h) (Homo sapiens, UniProt P06239). The data set can be described thus: Kinase Profiling Assay. It counts as biochemical. The note with it: 100 μM.
Another data set concerns the target EGFR(T790M)(h) (Homo sapiens, UniProt P00533, T790M). The data set can be described thus: Kinase Profiling Assay. Format: biochemical. The note with it: 100 μM.
Another data set addresses CDK3/cyclinE(h) (Homo sapiens, UniProt Q00526). Put plainly: Kinase Profiling Assay. Format: biochemical. The note with it: 100 μM.
The target of the next data set is Plk3(h) (Homo sapiens, UniProt Q9H4B4). Put plainly: Kinase Profiling Assay. It counts as biochemical. The note with it: 100 μM.
Chain of Plk3(h) (Q9H4B4 whole entry): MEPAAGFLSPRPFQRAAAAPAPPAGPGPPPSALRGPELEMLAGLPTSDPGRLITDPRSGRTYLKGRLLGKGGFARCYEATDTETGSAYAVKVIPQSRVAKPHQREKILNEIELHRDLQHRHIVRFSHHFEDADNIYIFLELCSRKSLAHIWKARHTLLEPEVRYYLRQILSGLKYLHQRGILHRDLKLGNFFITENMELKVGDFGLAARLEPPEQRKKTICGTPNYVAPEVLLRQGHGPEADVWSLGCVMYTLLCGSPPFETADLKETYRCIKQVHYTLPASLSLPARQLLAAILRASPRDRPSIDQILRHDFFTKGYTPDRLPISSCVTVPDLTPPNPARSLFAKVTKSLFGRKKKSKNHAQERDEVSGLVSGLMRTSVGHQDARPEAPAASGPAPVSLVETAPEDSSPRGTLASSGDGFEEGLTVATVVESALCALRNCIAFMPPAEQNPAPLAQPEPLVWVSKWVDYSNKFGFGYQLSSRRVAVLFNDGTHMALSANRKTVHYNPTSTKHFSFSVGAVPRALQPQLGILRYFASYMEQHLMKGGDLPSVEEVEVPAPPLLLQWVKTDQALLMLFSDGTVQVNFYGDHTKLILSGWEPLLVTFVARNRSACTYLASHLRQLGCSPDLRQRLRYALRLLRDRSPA
The next data set concerns the target Ab1(H396P)(h) (Homo sapiens, UniProt P00519, H396P). Put plainly: Kinase Profiling Assay. It counts as biochemical. The note with it: 100 μM.
The target in a further data set is MRCKβ(h) (Homo sapiens, UniProt Q9Y5S2). Put plainly: Kinase Profiling Assay. The note with it: 100 μM. It counts as biochemical.
Chain of MRCKβ(h) (Q9Y5S2 whole entry): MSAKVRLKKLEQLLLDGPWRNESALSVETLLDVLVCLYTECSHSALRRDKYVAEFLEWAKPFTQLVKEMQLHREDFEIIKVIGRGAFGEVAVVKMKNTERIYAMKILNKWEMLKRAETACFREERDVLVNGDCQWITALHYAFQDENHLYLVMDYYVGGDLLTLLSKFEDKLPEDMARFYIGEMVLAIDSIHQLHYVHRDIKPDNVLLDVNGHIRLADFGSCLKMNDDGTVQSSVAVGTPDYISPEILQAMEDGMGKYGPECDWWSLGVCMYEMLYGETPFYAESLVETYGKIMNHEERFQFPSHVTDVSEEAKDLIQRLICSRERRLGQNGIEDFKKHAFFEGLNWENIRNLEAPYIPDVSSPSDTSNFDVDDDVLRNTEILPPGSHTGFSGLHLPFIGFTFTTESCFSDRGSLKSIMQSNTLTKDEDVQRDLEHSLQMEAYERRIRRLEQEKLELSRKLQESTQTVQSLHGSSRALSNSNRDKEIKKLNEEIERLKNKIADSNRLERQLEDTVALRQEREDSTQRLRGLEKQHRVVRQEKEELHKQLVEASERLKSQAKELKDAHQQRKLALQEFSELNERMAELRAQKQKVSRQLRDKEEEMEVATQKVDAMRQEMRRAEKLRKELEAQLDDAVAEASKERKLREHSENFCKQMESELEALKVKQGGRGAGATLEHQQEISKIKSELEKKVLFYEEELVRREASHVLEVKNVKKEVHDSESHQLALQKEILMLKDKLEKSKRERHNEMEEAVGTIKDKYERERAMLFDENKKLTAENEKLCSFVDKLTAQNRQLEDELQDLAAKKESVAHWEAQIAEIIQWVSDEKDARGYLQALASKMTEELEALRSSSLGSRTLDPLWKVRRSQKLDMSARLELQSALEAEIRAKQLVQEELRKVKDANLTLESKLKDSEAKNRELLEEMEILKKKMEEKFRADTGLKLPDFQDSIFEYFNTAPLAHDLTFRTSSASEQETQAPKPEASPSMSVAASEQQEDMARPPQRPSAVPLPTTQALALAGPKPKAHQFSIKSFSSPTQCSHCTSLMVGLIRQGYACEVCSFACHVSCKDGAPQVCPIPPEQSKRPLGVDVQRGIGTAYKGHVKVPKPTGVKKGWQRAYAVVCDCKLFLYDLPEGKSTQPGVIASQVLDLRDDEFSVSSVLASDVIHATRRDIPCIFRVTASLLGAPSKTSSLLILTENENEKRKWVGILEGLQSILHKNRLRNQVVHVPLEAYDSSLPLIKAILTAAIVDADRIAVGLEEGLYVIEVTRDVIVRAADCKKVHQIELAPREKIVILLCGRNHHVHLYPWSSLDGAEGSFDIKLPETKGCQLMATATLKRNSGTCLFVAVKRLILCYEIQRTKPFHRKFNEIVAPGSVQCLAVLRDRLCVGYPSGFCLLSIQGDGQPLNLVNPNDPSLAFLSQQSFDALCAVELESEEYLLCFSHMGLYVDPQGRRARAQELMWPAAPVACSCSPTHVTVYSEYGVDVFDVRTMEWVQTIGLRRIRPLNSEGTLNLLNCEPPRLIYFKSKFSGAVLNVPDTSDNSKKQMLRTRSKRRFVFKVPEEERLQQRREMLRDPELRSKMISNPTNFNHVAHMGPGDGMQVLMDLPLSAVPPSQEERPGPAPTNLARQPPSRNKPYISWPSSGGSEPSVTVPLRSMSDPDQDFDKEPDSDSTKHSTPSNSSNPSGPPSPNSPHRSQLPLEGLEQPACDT
Another data set concerns the target PKBγ(h) (Homo sapiens, UniProt Q9Y243). Put plainly: Kinase Profiling Assay. It counts as biochemical. The note with it: 100 μM.
The next data set concerns the target CDK2/cyclinA(h) (Homo sapiens, UniProt P24941). The data set can be described thus: Kinase Profiling Assay. It counts as biochemical. The note with it: 100 μM.
Another data set has as its target ROCK-I(h) (Homo sapiens, UniProt Q13464). The data set can be described thus: Kinase Profiling Assay. Format: biochemical. The note with it: 100 μM.
Another data set deals with CDK9/cyclin T1(h) (Homo sapiens, UniProt P50750). The data set can be described thus: Kinase Profiling Assay. It counts as biochemical. The note with it: 100 μM.
The target of another data set is PDGFRα(D842V)(h) (Homo sapiens, UniProt P16234, D842V). Put plainly: Kinase Profiling Assay. The note with it: 100 μM. It counts as biochemical.
Chain of PDGFRα(D842V)(h) (P16234 24-1089 D842V): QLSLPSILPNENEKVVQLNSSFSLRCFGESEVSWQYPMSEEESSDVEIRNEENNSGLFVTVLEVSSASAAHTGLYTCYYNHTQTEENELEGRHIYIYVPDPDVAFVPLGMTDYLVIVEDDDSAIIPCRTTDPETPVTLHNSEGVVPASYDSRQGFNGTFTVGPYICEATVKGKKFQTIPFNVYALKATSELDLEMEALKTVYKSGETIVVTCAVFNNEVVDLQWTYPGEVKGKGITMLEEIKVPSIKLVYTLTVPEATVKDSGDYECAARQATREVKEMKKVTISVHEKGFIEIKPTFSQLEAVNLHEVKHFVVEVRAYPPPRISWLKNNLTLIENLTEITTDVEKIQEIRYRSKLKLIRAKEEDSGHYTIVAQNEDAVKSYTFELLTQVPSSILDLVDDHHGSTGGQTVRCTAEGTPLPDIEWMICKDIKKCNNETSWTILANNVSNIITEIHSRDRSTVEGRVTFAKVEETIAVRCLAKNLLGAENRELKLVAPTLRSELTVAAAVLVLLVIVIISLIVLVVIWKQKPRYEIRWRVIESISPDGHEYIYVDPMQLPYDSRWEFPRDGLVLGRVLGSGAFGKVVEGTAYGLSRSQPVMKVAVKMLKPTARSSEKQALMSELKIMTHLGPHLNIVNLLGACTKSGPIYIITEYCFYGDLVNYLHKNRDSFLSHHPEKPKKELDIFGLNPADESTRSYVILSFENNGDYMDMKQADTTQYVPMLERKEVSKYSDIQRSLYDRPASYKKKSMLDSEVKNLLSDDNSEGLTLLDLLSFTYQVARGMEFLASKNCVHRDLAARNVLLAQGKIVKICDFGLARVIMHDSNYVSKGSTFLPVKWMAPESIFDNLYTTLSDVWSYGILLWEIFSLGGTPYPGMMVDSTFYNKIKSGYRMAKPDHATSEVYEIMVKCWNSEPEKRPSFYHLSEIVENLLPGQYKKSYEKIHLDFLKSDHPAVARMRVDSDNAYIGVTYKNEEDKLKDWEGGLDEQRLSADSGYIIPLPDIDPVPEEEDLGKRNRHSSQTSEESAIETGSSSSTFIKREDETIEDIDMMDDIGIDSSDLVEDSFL
The next data set concerns the target T1, SAPK4(h) (Homo sapiens, UniProt O15264).
T1 sequence (O15264 1-365): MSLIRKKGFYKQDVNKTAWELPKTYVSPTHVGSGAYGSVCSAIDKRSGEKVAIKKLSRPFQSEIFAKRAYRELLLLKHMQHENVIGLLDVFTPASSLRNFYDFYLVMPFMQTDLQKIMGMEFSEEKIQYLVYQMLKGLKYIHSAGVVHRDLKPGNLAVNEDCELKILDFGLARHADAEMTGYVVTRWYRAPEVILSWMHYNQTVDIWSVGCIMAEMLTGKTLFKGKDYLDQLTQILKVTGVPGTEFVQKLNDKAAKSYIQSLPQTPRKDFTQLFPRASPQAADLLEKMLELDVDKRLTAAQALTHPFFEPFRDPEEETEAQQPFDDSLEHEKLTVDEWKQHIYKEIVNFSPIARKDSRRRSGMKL
The data set can be described thus: Kinase Profiling Assay. It counts as biochemical. The note with it: 100 μM.

A further data set addresses Fgr(h) (Homo sapiens, UniProt P09769). The data set can be described thus: Kinase Profiling Assay. Format: biochemical. The note with it: 100 μM.
The next data set deals with PAK3(h) (Homo sapiens, UniProt O75914). The data set can be described thus: Kinase Profiling Assay. Format: biochemical. The note with it: 100 μM.
A further data set deals with Tie2(R849W)(h) (Homo sapiens, UniProt Q02763, R849W). Put plainly: Kinase Profiling Assay. The note with it: 100 μM. It counts as biochemical.
The target in another data set is Yes(h) (Homo sapiens, UniProt P07947). The data set can be described thus: Kinase Profiling Assay. The note with it: 100 μM. Format: biochemical.
The target in a further data set is CK1γ3(h) (Homo sapiens, UniProt Q9Y6M4). The data set can be described thus: Kinase Profiling Assay. Format: biochemical. The note with it: 100 μM.
Chain of CK1γ3(h) (Q9Y6M4 whole entry): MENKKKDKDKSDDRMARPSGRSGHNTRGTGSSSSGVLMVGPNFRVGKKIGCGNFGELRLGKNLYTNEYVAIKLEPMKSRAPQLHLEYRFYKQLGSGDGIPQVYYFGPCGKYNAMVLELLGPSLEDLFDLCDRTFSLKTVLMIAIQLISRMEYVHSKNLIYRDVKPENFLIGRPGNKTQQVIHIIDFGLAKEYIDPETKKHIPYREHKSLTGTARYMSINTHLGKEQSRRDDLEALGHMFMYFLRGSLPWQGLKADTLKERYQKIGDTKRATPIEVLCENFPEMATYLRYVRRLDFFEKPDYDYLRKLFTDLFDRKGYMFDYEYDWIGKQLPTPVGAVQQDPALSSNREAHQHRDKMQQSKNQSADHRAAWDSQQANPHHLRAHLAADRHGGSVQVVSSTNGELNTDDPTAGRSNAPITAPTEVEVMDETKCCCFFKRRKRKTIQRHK
The next data set deals with GRK5(h) (Homo sapiens, UniProt P34947). The data set can be described thus: Kinase Profiling Assay. Format: biochemical. The note with it: 100 μM.
Chain of GRK5(h) (P34947 whole entry): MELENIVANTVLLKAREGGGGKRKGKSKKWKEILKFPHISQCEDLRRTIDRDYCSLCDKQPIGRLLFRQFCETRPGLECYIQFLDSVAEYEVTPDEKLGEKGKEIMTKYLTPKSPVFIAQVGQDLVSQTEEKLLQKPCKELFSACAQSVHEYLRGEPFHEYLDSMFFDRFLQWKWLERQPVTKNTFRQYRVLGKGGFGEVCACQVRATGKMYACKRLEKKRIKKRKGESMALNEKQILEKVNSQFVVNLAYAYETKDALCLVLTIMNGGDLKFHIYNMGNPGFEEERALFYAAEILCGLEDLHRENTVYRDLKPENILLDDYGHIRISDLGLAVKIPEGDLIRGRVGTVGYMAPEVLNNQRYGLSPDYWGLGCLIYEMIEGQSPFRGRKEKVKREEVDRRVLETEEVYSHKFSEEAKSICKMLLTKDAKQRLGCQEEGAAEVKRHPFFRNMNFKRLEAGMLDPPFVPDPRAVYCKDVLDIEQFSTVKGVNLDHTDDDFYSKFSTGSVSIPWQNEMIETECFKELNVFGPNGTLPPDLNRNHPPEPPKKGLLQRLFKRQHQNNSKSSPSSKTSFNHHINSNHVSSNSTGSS
For another data set, the target named is EphA2(h) (Homo sapiens, UniProt P29317). The data set can be described thus: Kinase Profiling Assay. Format: biochemical. The note with it: 100 μM.

Chain of PKBγ(h) (Q9Y243 whole entry): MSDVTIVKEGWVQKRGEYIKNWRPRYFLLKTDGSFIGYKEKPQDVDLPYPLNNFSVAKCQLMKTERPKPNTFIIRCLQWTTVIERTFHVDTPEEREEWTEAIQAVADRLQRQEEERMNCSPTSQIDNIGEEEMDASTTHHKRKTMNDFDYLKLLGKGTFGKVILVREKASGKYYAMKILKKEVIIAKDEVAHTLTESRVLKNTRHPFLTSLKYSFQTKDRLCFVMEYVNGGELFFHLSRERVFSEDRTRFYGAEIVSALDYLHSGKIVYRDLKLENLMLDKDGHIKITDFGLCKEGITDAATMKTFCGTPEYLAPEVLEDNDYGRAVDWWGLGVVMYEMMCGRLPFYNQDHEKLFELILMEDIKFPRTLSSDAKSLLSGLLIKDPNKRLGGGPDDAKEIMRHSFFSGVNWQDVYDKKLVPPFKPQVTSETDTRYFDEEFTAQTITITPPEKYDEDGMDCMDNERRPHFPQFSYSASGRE

Consider H-YARAAARQARAKALARQLGVAA-OH [MMI-0100], for which the activity at 100 µM at MKK7β(h) worked out at 137%. Also, the viability at 2 h, 500 µM in data set [1] came out at 76%. For the same substance, in the data set on HCAVSMCs [2], the “intracellular peptide retention (% of initial uptake remaining)” value is recorded as 54%. For the same substance, the “cytosolic fraction of internalized free peptide” value in the data set on HCAVSMCs [3] is recorded as 9.64%±8.17%. The “intracellular half-life (t1/2)” value in the data set on HCAVSMCs [4] amounted to 98.4 h.
For “HRRIKAWLKKIKALARQLGVAA (Mammalian) [MMI-0500]”, the “% activity” value with MAPK2(h) was determined as 60%; with Lck(h), 359%; in the data set with EGFR(T790M)(h), 70%; in the data set with CDK3/cyclinE(h), 8%; with Plk3(h), 122%; with Ab1(H396P)(h), 51%. The “% activity” value was -10% with MRCKβ(h); 20% with PKBγ(h); 87% with CDK2/cyclinA(h); 17% in the data set with ROCK-I(h); 6% in the data set with CDK9/cyclin T1(h); 170% in the data set with PDGFRα(D842V)(h). The “% activity” value with SAPK4(h) is listed as 48%.
Turning to “YARAAARQARAKALNRQLGVA (Mammalian) [MMI-0200]”, the “% activity” value worked out at 71% with Fgr(h); 50% with PAK3(h); 89% in the data set with Tie2(R849W)(h); 93% in the data set with Yes(h); 96% with CK1γ3(h); 135% with GRK5(h). In addition, in the data set with EphA2(h), the “% activity” value was 95%.
